Where no end group is shown, it is not given here.

The target of experiment [1] is recombinant MAVS protein. In words: fluorescence-labeled peptide titrated on plate-coated recombinant MAVS (250 ng per well), fluorescence read-out.
In experiment [2] the target is recombinant MAVS protein. Description: fluorescence-labeled peptide titrated on plate-coated recombinant MAVS; ratio of the Kd of MQP-37 to that of MQP-37A6.

recombinant MAVS protein, sequence (Q7Z434 2-540): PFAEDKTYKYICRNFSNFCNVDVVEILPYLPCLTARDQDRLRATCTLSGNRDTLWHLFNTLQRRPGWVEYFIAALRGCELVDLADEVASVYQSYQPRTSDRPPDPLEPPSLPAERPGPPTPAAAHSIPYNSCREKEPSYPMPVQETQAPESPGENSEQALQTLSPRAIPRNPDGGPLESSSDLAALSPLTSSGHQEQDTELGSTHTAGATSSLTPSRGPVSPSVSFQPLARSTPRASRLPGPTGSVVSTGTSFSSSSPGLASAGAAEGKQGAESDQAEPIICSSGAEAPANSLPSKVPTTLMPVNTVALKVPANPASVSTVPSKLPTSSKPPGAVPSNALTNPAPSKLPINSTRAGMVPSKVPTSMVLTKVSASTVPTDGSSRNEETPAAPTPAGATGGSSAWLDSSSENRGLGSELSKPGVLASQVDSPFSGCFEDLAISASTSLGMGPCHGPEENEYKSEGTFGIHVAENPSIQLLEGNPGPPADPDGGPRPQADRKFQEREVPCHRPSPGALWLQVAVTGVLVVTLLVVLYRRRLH

In the case of SLVLAAARW (also: fluorescence-labeled, label and position not given here) [fluorescence-labeled novel alanine-substituted peptide MQP-37A6], the dissociation constant (Kd) in experiment [1] was 0.75 mM. Further, the fold binding affinity against MQP-37 in experiment [2] is 20 times.

Regarding SLVLADARW (also: fluorescence-labeled, label and position not given here) [fluorescence-labeled peptide MQP-37], the Kd in experiment [1] amounted to 16 mM.

For the origin of these results see US20230203097A1.
